From patent US7351689 (ZymoGenetics, dated 2008)
Values belong to the binder of their own block, whether it stands above or below them.

Tests used:
[1] = molecular target: T1, human IL-28 receptor on transfected 293 HEK cells (IL-28 receptor alpha subunit with endogenous CRF2-4) (human); assay: cell-based or functional assay
[2] = molecular target: T1, human IL-28 receptor on transfected 293 …; assay: cell-based or functional assay; remark: listed apart in the source

T1 sequence (Q8IU57 whole entry, chain 1 of 2): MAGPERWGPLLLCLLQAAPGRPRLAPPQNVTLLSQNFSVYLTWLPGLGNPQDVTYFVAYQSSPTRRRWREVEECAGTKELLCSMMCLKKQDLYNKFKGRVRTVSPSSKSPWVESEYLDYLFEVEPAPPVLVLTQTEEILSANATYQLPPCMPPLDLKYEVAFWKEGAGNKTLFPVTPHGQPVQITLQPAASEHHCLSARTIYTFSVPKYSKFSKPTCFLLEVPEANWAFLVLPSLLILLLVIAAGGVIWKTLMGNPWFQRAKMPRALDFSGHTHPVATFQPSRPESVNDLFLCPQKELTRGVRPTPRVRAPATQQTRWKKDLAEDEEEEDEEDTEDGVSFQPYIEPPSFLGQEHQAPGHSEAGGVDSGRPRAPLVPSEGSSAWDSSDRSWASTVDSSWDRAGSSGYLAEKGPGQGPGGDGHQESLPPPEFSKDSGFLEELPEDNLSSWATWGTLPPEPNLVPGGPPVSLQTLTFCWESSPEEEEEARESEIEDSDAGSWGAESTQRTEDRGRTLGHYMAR
T1 sequence (Q08334 whole entry, chain 2 of 2, further chain): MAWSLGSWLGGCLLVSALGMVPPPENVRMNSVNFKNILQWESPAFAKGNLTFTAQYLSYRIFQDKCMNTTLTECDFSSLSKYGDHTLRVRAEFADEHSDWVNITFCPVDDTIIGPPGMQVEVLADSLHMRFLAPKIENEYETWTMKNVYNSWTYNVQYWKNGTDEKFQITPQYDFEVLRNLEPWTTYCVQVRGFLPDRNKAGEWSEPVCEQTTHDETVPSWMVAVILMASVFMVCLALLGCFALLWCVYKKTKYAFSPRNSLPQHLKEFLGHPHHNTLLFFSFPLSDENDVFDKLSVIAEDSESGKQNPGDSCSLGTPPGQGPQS

ISRE Signaling of Transfected 293 Cells Following Class II Cytokine Stimulation (Fold Induction), ISRE-Luc./IL-28R, IL-29 125 ng/ml [1]: 108 fold induction
B1: IL-29 (SEQ ID NO: 4) (ligand)
chain: GPVPTSKPTTTGKGCHIGRFKSLSPQELASFKKARDALEESLKLKNWSCSSPVFPGNWDLRLLQVRERPVALEAELALTLKVLEAAAGPALEDVLDQPLHTLHHILSQLQACIQPQPTAGPRPRGRLHHWLHRLQEAPKKESAGCLEASVTFNLFRLLTRDLKYVADGNLCLRTSTHPEST

bioactivity in an ISRE assay [2]: 30 fold higher than the C112-C171 form
B2: C1-C3 form (C16-C113) of wild-type E. coli-derived IL-29 (ligand)
chain: MGPVPTSKPTTTGKGCHIGRFKSLSPQELASFKKARDALEESLKLKNWSCSSPVFPGNWDLRLLQVRERPVALEAELALTLKVLEAAAGPALEDVLDQPLHTLHHILSQLQACIQPQPTAGPRPRGRLHHWLHRLQEAPKKESAGCLEASVTFNLFRLLTRDLKYVADGNLCLRTSTHPEST

ISRE Signaling of Transfected 293 Cells Following Class II Cytokine Stimulation (Fold Induction), ISRE-Luc./IL-28R, IL-28A 125 ng/ml [1]: 125 fold induction
B3: zcyto20 (IL-28A), human (ligand)
chain: VPVARLHGALPDARGCHIAQFKSLSPQELQAFKRAKDALEESLLLKDCRCHSRLFPRTWDLRQLQVRERPMALEAELALTLKVLEATADTDPALVDVLDQPLHTLHHILSQFRACIQPQPTAGPRTRGRLHHWLYRLQEAPKKESPGCLEASVTFNLFRLLTRDLNCVASGDLCV
